From the supplement of paper PMC5998384

What was measured:
[1] = tested on: HeLa Kyoto; experiment: melting temperature (median over replicates), in situ; higher = more thermally stable
[2] = tested on: HeLa Kyoto; experiment: solubility change mitosis vs G1/S (difference of NP-40 vs SDS log2 ratios) (log2 ratio difference); higher = more soluble in mitosis
[3] = tested on: HeLa Kyoto; experiment: solubility in G1/S (NP-40 vs SDS abundance) (log2 ratio); higher = more soluble; settings: cell cycle stage: G1/S
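Wherever melting temperature (median over replicates), in situ is given: HeLa Kyoto cells synchronized by double thymidine or nocodazole block, proteins quantified by TMT10plex mass spectrometry, three independent biological replicates.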
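Wherever solubility change mitosis vs G1/S (difference of NP-40 vs SDS log2 ratios) is given: synchronized HeLa Kyoto cells (double thymidine block for G1/S, nocodazole release for mitosis), protein amounts in NP-40 versus SDS lysates quantified by mass spectrometry, three biological replicates.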
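Wherever solubility in G1/S (NP-40 vs SDS abundance) is given: HeLa Kyoto cells arrested at G1/S by double thymidine block, proteins quantified by TMT10plex mass spectrometry in mild NP-40 versus SDS extracts, three biological replicates.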

MAHAGGGSGGSGAGGPAGRGLSGARWGRSGSAGHEKLPVHVEDALTYLDQVKIRFGSDPATYNGFLEIMKEFKSQSIDTPGVIRRVSQLFHEHPDLIVGFNAFLPLGYRIDIPKNGKLNIQSPLTSQENSHNHGDGAEDFKQQVPYKEDKPQVPLESDSVEFNNAISYVNKIKTRFLDHPEIYRSFLEILHTYQKEQLNTRGRPFRGMSEEEVFTEVANLFRGQEDLLSEFGQFLPEAKRSLFTGNGPCEMHSVQKNEHDKTPEHSRKRSRPSLLRPVSAPAKKKMKLRGTKDLSIAAVGKYGTLQEFSFFDKVRRVLKSQEVYENFLRCIALFNQELVSGSELLQLVSPFLGKFPELFAQFKSFLGVKELSFAPPMSDRSGDGISREIDYASCKRIGSSYRALPKTYQQPKCSGRTAICKELDHWTLLQGSWTDDYCMSKFKNTCWIPGYSAGVLNDTWVSFPSWSEDSTFVSSKKTPYEEQLHRCEDERFELDVVLETNLATIRVLESVQKKLSRMAPEDQEKFRLDDSLGGTSEVIQRRAIYRIYGDKAPEIIESLKKNPVTAVPVVLKRLKAKEEEWREAQQGFNKIWREQYEKAYLKSLDHQAVNFKQNDTKALRSKSLLNEIESVYDEHQEQHSEGRSAPSSEPHLIFVYEDRQILEDAAALISYYVKRQPAIQKEDQGTIHQLLHQFVPSLFFSQQLDLGASEESADEDRDSPQGQTTDPSERKKPAPGPHSSPPEEKGAFGDAPATEQPPLPPPAPHKPLDDVYSLFFANNNWYFFLRLHQTLCSRLLKIYRQAQKQLLEYRTEKEREKLLCEGRREKGSDPAMELRLKQPSEVELEEYYPAFLDMVRSLLEGSIDPTQYEDTLREMFTIHAYVGFTMDKLVQNIARQLHHLVSDDVCLKVVELYLNEKKRGAAGGNLSSRCVRAARETSYQWKAERCMADENCFKVMFLQRKGQVIMTIELLDTEEAQTEDPVEVQHLARYVEQYVGTEGASSSPTEGFLLKPVFLQRNLKKFRRRWQSEQARALRGEARSSWKRLVGVESACDVDCRFKLSTHKMVFIVNSEDYMYRRGTLCRAKQVQPLVLLRHHQHFEEWHSRWLEDNVTVEAASLVQDWLMGEEDEDMVPCKTLCETVHVHGLPVTRYRVQYSRRPASP [SIN3B]
melting temperature ([1]; cell cycle stage: G1/S): 47.9 °C | melting temperature ([1]; cell cycle stage: mitosis): 49.3 °C | solubility change mitosis (log2) [2]: 0.0177 | solubility in G1/S (log2) [3]: -0.231

MALLFLLPLVMQGVSRAEMGTADLGPSSVPTPTNVTIESYNMNPIVYWEYQIMPQVPVFTVEVKNYGVKNSEWIDACINISHHYCNISDHVGDPSNSLWVRVKARVGQKESAYAKSEEFAVCRDGKIGPPKLDIRKEEKQIMIDIFHPSVFVNGDEQEVDYDPETTCYIRVYNVYVRMNGSEIQYKILTQKEDDCDEIQCQLAIPVSSLNSQYCVSAEGVLHVWGVTTEKSKEVCITIFNSSIKGSLWIPVVAALLLFLVLSLVFICFYIKKINPLKEKSIILPKSLISVVRSATLETKPESKYVSLITSYQPFSLEKEVVCEEPLSPATVPGMHTEDNPGKVEHTEELSSITEVVTTEENIPDVVPGSHLTPIERESSSPLSSNQSEPGSIALNSYHSRNCSESDHSRNGFDTDSSCLESHSSLSDSEFPPNNKGEIKTEGQELITVIKAPTSFGYDKPHVLVDLLVDDSGKESLIGYRPTEDSKEFS [IFNGR1]
melting temperature ([1]; cell cycle stage: mitosis): 55.3 °C | solubility change mitosis (log2) [2]: -0.126 | solubility in G1/S (log2) [3]: 0.103

MALTVDVAGPAPWGFRITGGRDFHTPIMVTKVAERGKAKDADLRPGDIIVAINGESAEGMLHAEAQSKIRQSPSPLRLQLDRSQATSPGQTNGDSSLEVLATRFQGSVRTYTESQSSLRSSYSSPTSLSPRAGSPFSPPPSSSSLTGEAAISRSFQSLACSPGLPAADRLSYSGRPGSRQAGLGRAGDSAVLVLPPSPGPRSSRPSMDSEGGSLLLDEDSEVFKMLQENREGRAAPRQSSSFRLLQEALEAEERGGTPAFLPSSLSPQSSLPASRALATPPKLHTCEKCSTSIANQAVRIQEGRYRHPGCYTCADCGLNLKMRGHFWVGDELYCEKHARQRYSAPATLSSRA [PDLIM2]
melting temperature ([1]; cell cycle stage: G1/S): 55.6 °C | melting temperature ([1]; cell cycle stage: mitosis): 53.8 °C | solubility change mitosis (log2) [2]: -0.043 | solubility in G1/S (log2) [3]: 0.17

MALVRGAEPAAGPSRWLPTHVQVTVLRARGLRGKSSGAGSTSDAYTVIQVGREKYSTSVVEKTHGCPEWREECSFELPPGALDGLLRAQEADAGPAPWAASSAAACELVLTTMHRSLIGVDKFLGQATVALDEVFGAGRAQHTQWYKLHSKPGKKEKERGEIEVTIQFTRNNLSASMFDLSMKDKPRSPFSKIRDKMKGKKKYDLESASAILPSSAIEDPDLGSLGKMGKAKGFFLRNKLRKSSLTQSNTSLGSDSTLSSASGSLAYQGPGAELLTRSPSRSSWLSTEGGRDSAQSPKLFTHKRTYSDEANQMRVAPPRALLDLQGHLDAASRSSLCVNGSHIYNEEPQGPVRHRSSISGSLPSSGSLQAVSSRFSEEGPRSTDDTWPRGSRSNSSSEAVLGQEELSAQAKVLAPGASHPGEEEGARLPEGKPVQVATPIVASSEAVAEKEGARKEERKPRMGLFHHHHQGLSRSELGRRSSLGEKGGPILGASPHHSSSGEEKAKSSWFGLREAKDPTQKPSPHPVKPLSAAPVEGSPDRKQSRSSLSIALSSGLEKLKTVTSGSIQPVTQAPQAGQMVDTKRLKDSAVLDQSAKYYHLTHDELISLLLQRERELSQRDEHVQELESYIDRLLVRIMETSPTLLQIPPGPPK [RAB11FIP5]
melting temperature ([1]; cell cycle stage: G1/S): 50.1 °C | melting temperature ([1]; cell cycle stage: mitosis): 49.3 °C | solubility change mitosis (log2) [2]: -0.217 | solubility in G1/S (log2) [3]: 0.0739

MAPLRFSANLSWLFPELSGLPARVRAAGSSGFEAVEVAWPYAETPEALARAAREAGLRLVLINTPPGDQEKGEMGLGAVPGRQAAFREGLEQAVRYAKALGCPRIHLMAGRVPQGADRIAVKAEMEAVFLENLRHAAGVLAQEDLVGLLEPINTRITDPQYFLDTPQQAAAILQKVGRPNLQLQMDIFHWQIMDGNLTGNIREFLPIVGHVQVAQVPGRGEPSSPGELNFPYLFQLLEDEGYKGFVGCEYQPRGDTVEGLSWLRSYWDRRGHPEAGQ [HYI]
melting temperature ([1]; cell cycle stage: G1/S): 55.2 °C | melting temperature ([1]; cell cycle stage: mitosis): 54.7 °C | solubility change mitosis (log2) [2]: 0.234 | solubility in G1/S (log2) [3]: 0.344

MAPRGRKRKAEAAVVAVAEKREKLANGGEGMEEATVVIEHCTSURVYGRNAAALSQALRLEAPELPVKVNPTKPRRGSFEVTLLRPDGSSAELWTGIKKGPPRKLKFPEPQEVVEELKKYLS [SELH]
melting temperature ([1]; cell cycle stage: mitosis): 52.2 °C | solubility change mitosis (log2) [2]: 0.17 | solubility in G1/S (log2) [3]: -0.0665

MAQKRPACTLKPECVQQLLVCSQEAKKSAYCPYSHFPVGAALLTQEGRIFKGCNIENACYPLGICAERTAIQKAVSEGYKDFRAIAIASDMQDDFISPCGACRQVMREFGTNWPVYMTKPDGTYIVMTVQELLPSSFGPEDLQKTQ [CDA]
melting temperature ([1]; cell cycle stage: G1/S): 54.4 °C | melting temperature ([1]; cell cycle stage: mitosis): 54 °C | solubility change mitosis (log2) [2]: -0.0534 | solubility in G1/S (log2) [3]: 0.37

MASREEVLALQAEVAQREEELNSLKQKLASALLAEQEPQPERLVPVSPLPPKAALSRDEILRYSRQLVLPELGVHGQLRLGTACVLIVGCGGLGCPLAQYLAAAGVGRLGLVDYDVVEMSNLARQVLHGEALAGQAKAFSAAASLRRLNSAVECVPYTQALTPATALDLVRRYDVVADCSDNVPTRYLVNDACVLAGRPLVSASALRFEGQITVYHYDGGPCYRCIFPQPPPAETVTNCADGGVLGVVTGVLGCLQALEVLKIAAGLGPSYSGSLLLFDALRGHFRSIRLRSRRLDCAACGERPTVTDLLDYEAFCGSSATDKCRSLQLLSPEERVSVTDYKRLLDSGAFHLLLDVRPQVEVDICRLPHALHIPLKHLERRDAESLKLLKEAIWEEKQGTQEGAAVPIYVICKLGNDSQKAVKILQSLSAAQELDPLTVRDVVGGLMAWAAKIDGTFPQY [MOCS3]
melting temperature ([1]; cell cycle stage: G1/S): 51.3 °C | melting temperature ([1]; cell cycle stage: mitosis): 49.5 °C | solubility change mitosis (log2) [2]: -0.0562 | solubility in G1/S (log2) [3]: 0.156

MASRGKTETSKLKQNLEEQLDRLMQQLQDLEECREELDTDEYEETKKETLEQLSEFNDSLKKIMSGNMTLVDELSGMQLAIQAAISQAFKTPEVIRLFAKKQPGQLRTRLAEMDRDLMVGKLERDLYTQQKVEILTALRKLGEKLTADDEAFLSANAGAILSQFEKVSTDLGSGDKILALASFEVEKTKK [LZIC]
melting temperature ([1]; cell cycle stage: G1/S): 54.1 °C | melting temperature ([1]; cell cycle stage: mitosis): 53.2 °C | solubility change mitosis (log2) [2]: 0.544 | solubility in G1/S (log2) [3]: 0.367

MATGDLKRSLRNLEQVLRLLNYPEEVDCVGLIKGDPAASLPIISYSFTSYSPYVTELIMESNVELIAKNDLRFIDAVYKLLRDQFNYKPILTKKQFIQCGFAEWKIQIVCDILNCVMKKHKELSSLQKIPSQQRKKISSGKSEPPLGNEKISAEAVGVDISGRFMTSGKKKAVVIRHLYNEDNVDISEDTLSPITDVNEAVDVSDLNATEIKMPEVKVPEIKAEQQDVNVNPEITALQTMLAECQENLKKLTSIEKRLDCLEQKMKGKVMVDENTWTNLLSRVTLLETEMLLSKKNDEFIEFNEVSEDYASCSDMDLLNPHRKSEVERPASIPLSSGYSTASSDSTPRASTVNYCGLNEISEETTIQKMERMKKMFEETAELLKCPNHYL [CEP44]
melting temperature ([1]; cell cycle stage: G1/S): 48.6 °C | melting temperature ([1]; cell cycle stage: mitosis): 49.3 °C | solubility change mitosis (log2) [2]: -0.26 | solubility in G1/S (log2) [3]: 0.259

MATKDPTAVERANLLNMAKLSIKGLIESALSFGRTLDSDYPPLQQFFVVMEHCLKHGLKVRKSFLSYNKTIWGPLELVEKLYPEAEEIGASVRDLPGLKTPLGRARAWLRLALMQKKMADYLRCLIIQRDLLSEFYEYHALMMEEEGAVIVGLLVGLNVIDANLCVKGEDLDSQVGVIDFSMYLKNEEDIGNKERNVQIAAILDQKNYVEELNRQLNSTVSSLHSRVDSLEKSNTKLIEELAIAKNNIIKLQEENHQLRSENKLILMKTQQHLEVTKVDVETELQTYKHSRQGLDEMYNEARRQLRDESQLRQDVENELAVQVSMKHEIELAMKLLEKDIHEKQDTLIGLRQQLEEVKAINIEMYQKLQGSEDGLKEKNEIIARLEEKTNKITAAMRQLEQRLQQAEKAQMEAEDEDEKYLQECLSKSDSLQKQISQKEKQLVQLETDLKIEKEWRQTLQEDLQKEKDALSHLRNETQQIISLKKEFLNLQDENQQLKKIYHEQEQALQELGNKLSESKLKIEDIKEANKALQGLVWLKDKEATHCKLCEKEFSLSKRKHHCRNCGEIFCNACSDNELPLPSSPKPVRVCDSCHALLIQRCSSNLP [RUFY2]
melting temperature ([1]; cell cycle stage: G1/S): 49.1 °C | melting temperature ([1]; cell cycle stage: mitosis): 49.3 °C | solubility change mitosis (log2) [2]: -0.122 | solubility in G1/S (log2) [3]: -0.00835

MATLSFVFLLLGAVSWPPASASGQEFWPGQSAADILSGAASRRRYLLYDVNPPEGFNLRRDVYIRIASLLKTLLKTEEWVLVLPPWGRLYHWQSPDIHQVRIPWSEFFDLPSLNKNIPVIEYEQFIAESGGPFIDQVYVLQSYAEGWKEGTWEEKVDERPCIDQLLYSQDKHEYYRGWFWGYEETRGLNVSCLSVQGSASIVAPLLLRNTSARSVMLDRAENLLHDHYGGKEYWDTRRSMVFARHLREVGDEFRSRHLNSTDDADRIPFQEDWMKMKVKLGSALGGPYLGVHLRRKDFIWGHRQDVPSLEGAVRKIRSLMKTHRLDKVFVATDAVRKEYEELKKLLPEMVRFEPTWEELELYKDGGVAIIDQWICAHARFFIGTSVSTFSFRIHEEREILGLDPKTTYNRFCGDQEKACEQPTHWKITY [POFUT2]
melting temperature ([1]; cell cycle stage: mitosis): 53.8 °C | solubility change mitosis (log2) [2]: -0.151 | solubility in G1/S (log2) [3]: 0.154

MDPGKDKEGVPQPSGPPARKKFVIPLDEDEVPPGVAKPLFRSTQSLPTVDTSAQAAPQTYAEYAISQPLEGAGATCPTGSEPLAGETPNQALKPGAKSNSIIVSPRQRGNPVLKFVRNVPWEFGDVIPDYVLGQSTCALFLSLRYHNLHPDYIHGRLQSLGKNFALRVLLVQVDVKDPQQALKELAKMCILADCTLILAWSPEEAGRYLETYKAYEQKPADLLMEKLEQDFVSRVTECLTTVKSVNKTDSQTLLTTFGSLEQLIAASREDLALCPGLGPQKARRLFDVLHEPFLKVP [ERCC1]
melting temperature ([1]; cell cycle stage: mitosis): 51 °C | solubility change mitosis (log2) [2]: 0.0087 | solubility in G1/S (log2) [3]: 0.296
